For 1 substance, specific cytocidal activity, standard Cr51 test, results are on record in US20070275049A1.

Test [1] concerns the target EGFR-derived peptide(s) on MHC class I of EGFR-positive MA782/5S tumor cells (mouse).
Test [2] concerns the target EGFR-derived peptide(s) on MHC class I (H-2Kb/H-2Db) of EGFR-positive LL/2c tumor cells (mouse).

In the case of “spleen T cells of mice immunized by chEGFR molecular vaccine (cells without a defined receptor)”, the specific cytocidal activity, standard Cr51 test, at the ratio of 40:1 is 42.8% in test [1] and 40.3% in test [2].
